Data on 84 variants can be found in the RNAGym collection of RNA variant scans (doi:10.1073/pnas.2313332121).

To fix the notation:
B1: TPR t1 (parent)
chain: GACCAAUCUGCCCUCAGAGCUCGAGAACAUCUUCGGAUGCAGAGGAGGCAGGCUUCGGUGGCGCGAUAGCGCCAACGUCCUCAACCUCCAAUGCAUCCCACCACAUGAUGAUGCCUGAAGAGCCUUGGUUUUUUG

In this series the parent is B1. In words: polymerase ribozyme fitness, log enrichment relative to wild type (log ratio); higher = more active; in vitro selection for triplet polymerase activity. Put shortly:
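A single round of triplicate in vitro selection, including frozen incubation at −7 °C, was applied to PCR-built, transcribed mutant libraries of each subunit of a heterodimeric triplet polymerase ribozyme. Illumina sequencing of input and output libraries retained genotypes with ≥10 input reads and ≥1 read per output. Fitness is the base-2 logarithm of genotype enrichment divided by wild-type enrichment, from inverse-variance-weighted replicate averages.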
With A66U C89U, the “polymerase ribozyme fitness (log ratio)” value is -1.51.
As to C8A G48U C53A C82U U106A A108G, the “polymerase ribozyme fitness (log ratio)” value was -1.56.
As to C15U A26G G63C G71A C102U U109G U112A U129A, the “polymerase ribozyme fitness (log ratio)” value is -3.42.
As for G48U C72U C85A U92C G93C C101U, the “polymerase ribozyme fitness (log ratio)” value is -3.44.
As for C85G G127C, the figure is -2.56.
In the case of G63A C114A, the “polymerase ribozyme fitness (log ratio)” value was -1.9.
As for U78C A103G U109A C114A A119C, the figure is -6.28.
As to G71C C88G, the “polymerase ribozyme fitness (log ratio)” value is -1.88.
As for G77A C82A U109A, the figure is -4.87; as for C40U C88U, -0.588.
For the variant G60U G77C C89U U132A, the “polymerase ribozyme fitness (log ratio)” value is -0.345.
As to C8U C56U C82A C97A G117C, the “polymerase ribozyme fitness (log ratio)” value was -7.35.
In the case of C4A C62A U92A U129A, the “polymerase ribozyme fitness (log ratio)” value is -5.8.
C40G G52U: the “polymerase ribozyme fitness (log ratio)” value was -2.76.
As for A43U G52U A68G C124U, the figure is -5.64; as for A2C C11U C70G G120A, -3.19.
For G10U C12A G60A the value was -0.594; for C123A U130A, 0.213; for G93C U130G, -1.51.
As for G39U U106C U129C, the “polymerase ribozyme fitness (log ratio)” value is -1.88.
Regarding G48U U59A U78G U116A, the “polymerase ribozyme fitness (log ratio)” value was -3.29.
As for U54G C89A U131G, the figure is -2.74; as for U7G U33G, -5.33.
Regarding G19U C20U C72A U131A, the “polymerase ribozyme fitness (log ratio)” value is -3.4.
As for G48A G71C G117A, the figure is -1.66; as for C11G C70U C79A, -1.87; as for G45U G52U G61C, -2.32.
For C8A G35A G61A C89U A95U U106A, the “polymerase ribozyme fitness (log ratio)” value is -6.13.
Regarding C88A C102A, the “polymerase ribozyme fitness (log ratio)” value was -2.16.
Consider A46U C56A C72G G93A G120A C123U, for which the “polymerase ribozyme fitness (log ratio)” value is -4.15.
G110U U112C: the “polymerase ribozyme fitness (log ratio)” value was -2.02.
With C3A C79A G120U G128A, the “polymerase ribozyme fitness (log ratio)” value is -3.06.
With G60A C89A A105U C114U, the “polymerase ribozyme fitness (log ratio)” value was -6.37.
On to C40U G44A U125A, for which the “polymerase ribozyme fitness (log ratio)” value is -1.32.
In the case of G17C A41U G51U C64U C104U G120A, the “polymerase ribozyme fitness (log ratio)” value was -6.91.
C4U A43U U96A: the “polymerase ribozyme fitness (log ratio)” value was -3.02.
As to G45U C64U A121G G135A, the “polymerase ribozyme fitness (log ratio)” value is 0.974.
As for G69A C73A, the “polymerase ribozyme fitness (log ratio)” value is -2.75.
As for C22U A27C U87G, the figure is -5.65; as for G36A G127U U133G, -3.26.
Consider C40G G44U C85U, for which the “polymerase ribozyme fitness (log ratio)” value is -5.09.
As for C56A A68G G120C, the figure is -4.19.
For C13G C15U G58C the value was -3.58; for A2G G44C C62A C97U C115U G135A, -5.32; for C73U U106C, -0.194.
On to G23C G58A G61A C94G A111C, for which the “polymerase ribozyme fitness (log ratio)” value was -7.65.
Take C8G C80A A90U G128C U129G: the “polymerase ribozyme fitness (log ratio)” value was -4.56.
For the variant A5U G61C C88A, the “polymerase ribozyme fitness (log ratio)” value was -2.27.
For C4U C49U U78A the value was -1.36; for G35U A74G C89U C115A, -6.17; for C15G C20U C73U U78G A111G, -6.71.
A29C G69U C99U: the “polymerase ribozyme fitness (log ratio)” value is -3.95.
Take G52A G93A U130G: the “polymerase ribozyme fitness (log ratio)” value was -1.22.
C15U G60A C73U U78A G135U: the “polymerase ribozyme fitness (log ratio)” value was -1.76.
For G69C G117A the value was -2.37.
As for U9G U38G C70U A105U, the “polymerase ribozyme fitness (log ratio)” value was -4.46.
As for G23C A27C C53U U54C C62A C88G C99U C124U U130A U131G, the figure is -7.2; as for A37C G65C A121U, -5.06; as for G17A G128C, -5.29.
As to C49U U55G, the “polymerase ribozyme fitness (log ratio)” value is -0.735.
On to C56G G117U, for which the “polymerase ribozyme fitness (log ratio)” value is -2.83.
G47C C64U A90C C104U: the “polymerase ribozyme fitness (log ratio)” value is -2.77.
Consider U38A C72G C86U G135U, for which the “polymerase ribozyme fitness (log ratio)” value is -3.57.
Turning to G58C U109G G117A, the “polymerase ribozyme fitness (log ratio)” value was -5.76.
For G58C C76G G77U the value was -0.291.
Turning to U14G C53U U87A, the “polymerase ribozyme fitness (log ratio)” value was -2.67.
C12A C40U U87G: the “polymerase ribozyme fitness (log ratio)” value was -1.56.
For the variant U9C U112G, the “polymerase ribozyme fitness (log ratio)” value was found to be 0.223.
Turning to C40G A84G, the “polymerase ribozyme fitness (log ratio)” value is -2.06.
For G44U G69C, the “polymerase ribozyme fitness (log ratio)” value was -0.825.
Regarding G61A G127A, the “polymerase ribozyme fitness (log ratio)” value is -2.37.
Turning to A16C C49A A74C C88A U116C, the “polymerase ribozyme fitness (log ratio)” value was -3.06.
As for C15U C22A U54A C124A, the “polymerase ribozyme fitness (log ratio)” value is -3.89.
Consider U96A A119U, for which the “polymerase ribozyme fitness (log ratio)” value is -1.13.
Take G19U C64U: the “polymerase ribozyme fitness (log ratio)” value was -2.87.
For C8G C64U the value was 0.927.
For G113A G128C the value was -2.85.
As for G51A U55G A66U U112A, the “polymerase ribozyme fitness (log ratio)” value was -6.46.
Take C3U C8U G71U C88U G117C: the “polymerase ribozyme fitness (log ratio)” value was -4.1.
Regarding U21G G93U A111G U112G, the “polymerase ribozyme fitness (log ratio)” value is -2.45.
For the variant C56G A74U C124U, the “polymerase ribozyme fitness (log ratio)” value came to 0.777.
A16U G71U: the “polymerase ribozyme fitness (log ratio)” value is -0.858.
Regarding A37U G42C, the “polymerase ribozyme fitness (log ratio)” value is -1.65.
On to A27G U96G C99G U129A, for which the “polymerase ribozyme fitness (log ratio)” value is -6.24.
